Experimental findings from patent US20210261671A1 (HARPOON THERAPEUTICS, published 2021) are described below.

Test [1] concerns the target T1, human FLT3 protein (human, UniProt P36888 27-541, limits assumed).
T1 construct: protein coated in the screening ELISA; also called ELISA FLT3
The experiment in a line: colorimetric ELISA, signal over control wells lacking FLT3. The source says: (§1) Llamas were immunized with purified FLT3 protein expressed in Expi293 cells. A phage display library for expression of heavy variable antibody domains was constructed from circulating B cells isolated from the immunized llamas (See van der Linden, de Geus, Stok, Bos, van Wassenaar, Verrips, and Frenken. 2000. J Immunol Methods 240:185-195). Phage clones were screened for binding to FLT3 by expressing llama anti-FLT3 proteins in E. coli, preparing periplasmic extracts, and performing colorimetric ELISAs.
(ELISA stands for enzyme-linked immunosorbent assay.)

The target in test [2] is T1, human FLT3 protein. The experiment in a line: colorimetric ELISA, periplasmic extract.
From the text: as §1

B1: FLL142 (VHH)
VHH: QVQLQESGGGLVQAGGSLRLSCAVSGRTFSGFGTGWFRQAPGKEREFVAAISWDGGRTHYADFVKGRFTISRDNAKNTVYLQMNSLKPEDTAVYYCAAQVARAYDSKWYSGGDYWGQGTQVTVSS
notes: llama anti-FLT3 variable domain; E. coli periplasmic extract
B1 returned an FLT3/control in the test with human FLT3 protein [1] of 15 ratio. For the same molecule, in the test with human FLT3 protein [2], the “ELISA FLT3 (absorbance)” value is 4 absorbance.

B2: FLL170 (VHH)
VHH: QVQLQESGGGLVQAGGSLRLSCAVSGRTFSGFGTGWFRQAPGKEREFVAAISWSGGTTHYADSVKGRFTISRDNAKNTVYLQMNSLKPEDTAVYYCAGQVARAYDSSWYSRGDYWGQGTQVTVSS
notes: as for B1
As to B2, in the test with human FLT3 protein [1], the FLT3/control turned out to be 38 ratio. For the same molecule, the “ELISA FLT3 (absorbance)” value in the test with human FLT3 protein [2] amounted to 4 absorbance.

B3: FLL143 (VHH)
VHH: QVQLQESGGGLVQAGGSLRLSCAVSGRTFSGFGTGWFRQAPGKEREFVAAISWVGGRTHYADSVKGRFTISRDNAKNTVYLQMNSLKPEDTAVYYCAAQVARAYDGNWYSGGDYWGQGTQVTVSS
notes: as for B1
On to B3, for which the FLT3/control with human FLT3 protein [1] was found to be 47 ratio. Further, in the test with human FLT3 protein [2], the “ELISA FLT3 (absorbance)” value turned out to be 4 absorbance.

B4: FLL188 (VHH)
VHH: QVQLQESGGGLVQAGGSLGLSCAVSGRTFSGFGTGWFRQPPEKEREFVAAISWDGGRTHYADSVKGRFTISRDNAKNTVFLQMNSLKPEDTAVYYCAAQVARAYDSRWYSGGDYWGQGTQVTVSS
notes: as for B1
On to B4, for which the FLT3/control in the test with human FLT3 protein [1] came to 51 ratio. Further, the “ELISA FLT3 (absorbance)” value with human FLT3 protein [2] came to 4 absorbance.

B5: FLL168 (VHH)
VHH: QVQLQESGGGSVQAGGSLRLSCAFSGRTFSGFGTGWFRQAPEKEREFVAAISWDGGRTHYADSVKGRFTISRDNAKNTVYLQMDSLKPEDTAIYYCAAQVSRAYDGRWYSAVDYWGRGTQVTVSS
notes: as for B1
On to B5, for which the FLT3/control in the test with human FLT3 protein [1] was found to be 28 ratio. For the same molecule, the “ELISA FLT3 (absorbance)” value in the test with human FLT3 protein [2] was 4 absorbance.

B6: FLL134 (VHH)
VHH: QVQLQESGGGLVQPGGSLRLSCAASGGTFSSYATGWFRQVPGKEREFIAGISRNSGRTYAESVKGRFTISRDNAKNTVYLQMNTLRPDDTAVYYCAAARYFTRDAIYTSGDDYDYWGQGTQVTASS
notes: as for B1
In the test with human FLT3 protein [1], B6 gave an FLT3/control of 15 ratio. Besides, the “ELISA FLT3 (absorbance)” value with human FLT3 protein [2] stood at 1.3 absorbance.

B7: FLL84 (VHH)
VHH: QVQLQESGGGLVQAGGSLMVSCAASGGTFSSYATGWFRQVPGKEREFIAGISRSGGRTYYAESVKGRFTISRDNAKNTVYLQMNTLKPDDTAVYYCAAARYFTTSVVYTSGDDYDYWGQGTQVTVSS
notes: as for B1
Regarding B7, the FLT3/control with human FLT3 protein [1] was determined as 4 ratio. Also, the “ELISA FLT3 (absorbance)” value with human FLT3 protein [2] was determined as 1.3 absorbance.

B8: FLL153 (VHH)
VHH: QVQLQESGGGLVQVGGSLMVSCAASGGTFSSYATGWFRQVPGKEREFIAGVSRNSGRTYYAESVKGRFTISRDNAKNTVYLQMNTLKPDDTGVYYCAAARYFTRDAVYTSGDDYDYWGQGTQVTVSS
notes: as for B1
Molecule B8 returned an FLT3/control with human FLT3 protein [1] of 15 ratio. In addition, the “ELISA FLT3 (absorbance)” value with human FLT3 protein [2] is 1.4 absorbance.

B9: FLL41 (VHH)
VHH: QVQLQESGGGLVQLGDSLMVSCAASGGTFSSYATGWFRQVPGREREFIAGISRSGGRTYYAESVKGRFTISRDNAKNTVYLQMNTLKPDDTAVYYCAAARYFTTSVVYTSGDDYDYWGQGTQVTVSS
notes: as for B1
The molecule B9 returned an FLT3/control in the test with human FLT3 protein [1] of 5 ratio. Moreover, in the test with human FLT3 protein [2], the “ELISA FLT3 (absorbance)” value was 0.8 absorbance.

B10: FLL122 (VHH)
VHH: QVQLQESGGGLVQAGGSLMVSCAASGGTWSSYATGWFRQVPGKERELIAGISRSGGRTYYAESVKGRFTISRDNAKNTVYLQMNTLKPDDTAVYYCAAARYFTSSVVYTSGNDYDYWGQGTQVTVSS
notes: as for B1
B10: in the test with human FLT3 protein [1], the FLT3/control turned out to be 26 ratio. Besides, the “ELISA FLT3 (absorbance)” value in the test with human FLT3 protein [2] came to 4 absorbance.

B11: FLL102 (VHH)
VHH: QVQLQESGGGLVQAGGSLMVSCAASGGTWSSYATGWFRQVPGKERKLIAGISRSGGRTYYAESVKGRFTISRDNAKNTVYLQMNTLKPDDTAVYYCAAARYFTSSVVYTSGNDYDYWGQGTQVTVSS
notes: as for B1
B11 yielded an FLT3/control with human FLT3 protein [1] of 37 ratio. Further, the “ELISA FLT3 (absorbance)” value with human FLT3 protein [2] came out at 3.7 absorbance.

B12: FLL8 (VHH)
VHH: QVQLQESGGGLVQVGGSLMVSCAASGGTFSSYATGWFRQVPGKEREFIAGISRNSGRTYYAESVKGRFTISRDNAKNTVYLQMNTLKPDDTAVYYCAAARYFTRDVVYTSGDDYDYWGQGTQVTVSS
notes: as for B1
Turning to B12, in the test with human FLT3 protein [1], the FLT3/control was determined as 14 ratio. For the same molecule, the “ELISA FLT3 (absorbance)” value in the test with human FLT3 protein [2] was found to be 3.3 absorbance.

B13: FLL71 (VHH)
VHH: QVQLQESGGGLVQVGGSLMVSCAASGGTFSSYATGWFRQVPGKEREFIAGISRNSGRTYYAESVKGRFTISRDNAKNTVYLQMNTLKPDDTAVYYCAAARYFTRDAVYTSGDDYDYWGQGTQVTVSS
notes: as for B1
B13: the FLT3/control with human FLT3 protein [1] turned out to be 9 ratio. The “ELISA FLT3 (absorbance)” value with human FLT3 protein [2] amounted to 1.9 absorbance.

B14: FLL92 (VHH)
VHH: QVQLQESGGGLVQAGGSLMVSCAASGGTWSSYATGWFRQVPGKERELIAGISRSGGRTYYAESVKGRFTISRDNAKNTVYLQMNTLKSDDTAVYYCAAARYFTSSVVYTSGNDYDYWGQGTQVTVSS
notes: as for B1
Molecule B14 had an FLT3/control in the test with human FLT3 protein [1] of 25 ratio. Moreover, the “ELISA FLT3 (absorbance)” value with human FLT3 protein [2] was 4 absorbance.

B15: FLL67 (VHH)
VHH: QVQLQESGGGLVQLGDSLMVSCAASGGTFSSYATGWFRQVPGKEREFIAGISRSGGRTYYAESVKGRFTISRDNAKNTVYLQMNTLKPDDTAVYYCAAARYFTTSVVYTSGDDYDYWGQGTQVTVSS
notes: as for B1
B15 had an FLT3/control in the test with human FLT3 protein [1] of 12 ratio. For the same molecule, in the test with human FLT3 protein [2], the “ELISA FLT3 (absorbance)” value was found to be 2.7 absorbance.

B16: FLL553 (VHH)
VHH: QVQLQESGGGLVQAGGSLRLSCAVSGRTFSGFGTGWFRQAPGKEREFVAAISWSGGTTHYADSVKGRFTISRDNAKNTVNLVYLQMNSLRPEDTAVYYCAGQVARAYDSNWYSRGDYWGQGTQVTVSS
notes: as for B1
B16 displayed an FLT3/control with human FLT3 protein [1] of 37 ratio. In addition, the “ELISA FLT3 (absorbance)” value in the test with human FLT3 protein [2] was determined as 3.7 absorbance.

B17: FLL53 (VHH)
VHH: QVQLQESGGGLVQAGDSLRLSCAVSGRTFSGFGTGWFRQAPGKEREFVAAVSQSGGTTHYADSVKGRFTISRDNAKNTETLVYLQMNSLKPEDTAVYYCAGQVARAYDSSWYARGDYWGQGTQVTVSS
notes: as for B1
With B17, the FLT3/control with human FLT3 protein [1] was found to be 17 ratio. In the test with human FLT3 protein [2], the “ELISA FLT3 (absorbance)” value came out at 3.9 absorbance.

B18: FLL40 (VHH)
VHH: QVQLQESGGGLVQAGGSLRLSCAVSGRTFSGFGTGWFRQAPGKEREFVAAISWSGGTTHYADSVKGRFTISRDNAKNTVSLVYLQMNSLKPDDTAVYYCAGQVARAYDSSWYSRGDYLGQGTQVTVSS
notes: as for B1
Molecule B18 returned an FLT3/control in the test with human FLT3 protein [1] of 21 ratio. Further, the “ELISA FLT3 (absorbance)” value with human FLT3 protein [2] amounted to 4 absorbance.

B19: FLL75 (VHH)
VHH: QVQLQESGGGLVQAGGSLRLSCAVSGRTFSGFGTGWFRQAPGKEREFVAAISWSGGTTHYADSVKGRFTISRDNAKNTVNLVYLQMNDLRPEDTAVYYCAGQVARAYDSNWYSRGDYWGQGTQVTVSS
notes: as for B1
In the test with human FLT3 protein [1], B19 displayed an FLT3/control of 19 ratio. In addition, in the test with human FLT3 protein [2], the “ELISA FLT3 (absorbance)” value was 4 absorbance.
